Assay results: patent US20260049138A1 (Chugai, published 2026)

B1: GLS3000 V94Q one-arm antibody (antibody, human IgG1, kappa, L234A L235A, N297A, name in Kabat numbering)
heavy: QVQLVESGGGVVQPGRSLRLSCAASGFTFSNAWMHWVRQAPGKGLEWVAQIKAKSNNYATYYAESVKGRFTISRDDSKNSLYLQMNSLKTEDTAVYYCRYVHYGAYYGVDAWGQGTTVTVSSASTKGPSVFPLAPSSKSTSGGTAALGCLVKDYFPEPVTVSWNSGALTSGVHTFPAVLQSSGLYSLSSVVTVPSSSLGTQTYICNVNHKPSNTKVDKKVEPKSCDKTHTCPPCPAPEAAGGPSVFLFPPKPKDTLMISRTPEVTCVVVDVSHEDPEVKFNWYVDGVEVHNAKTKPREEQYASTYRVVSVLTVLHQDWLNGKEYKCKVSNKALPAPIEKTISKAKGQPREPQVYTLPPSRCELTKNQVSLSCAVKGFYPSDIAVEWESNGQPENNYKTTPPVLDSDGSFFLVSKLTVDKSRWQQGNVFSCSVMHEALHNHYTQKSLSLSPDYKDDDDK
chain: EPKSSDKTHTCPPCPAPELLGGPSVFLFPPKPKDTLMISRTPEVTCVVVDVSHEDPEVKFNWYVDGVEVHNAKTKPREEQYNSTYRVVSVLTVLHQDWLNGKEYKCKVSNKALPAPIEKTISKAKGQPREPQVCTLPPSRDELTKNQVSLWCLVKGFYPSDIAVEWESNGQPENNYKTTPPVLDSDGSFFLYSKLTVDKSRWQQGNVFSCSVMHEALHNRYTQKSLSLSP
light: DIVMTQSPLSLPVTPGEPASISCRSSQSLVHSNRNTYLHWYQQKPGQAPRLLIYKVSNRFSGVPDRFSGSGSGTDFTLKISRVEAEDVGVYYCGQGTQQPYTFGQGTKLEIKRTVAAPSVFIFPPSDEQLKSGTASVVCLLNNFYPREAKVQWKVDNALQSGNSQESVTEQDSKDSTYSLSSTLTLSKADYEKHKVYACEVTHQGLSSPVTKSFNRGEC
B2: GLS3000 V94R one-arm antibody (antibody, human IgG1, kappa, L234A L235A, N297A, name in Kabat numbering)
heavy: QVQLVESGGGVVQPGRSLRLSCAASGFTFSNAWMHWVRQAPGKGLEWVAQIKAKSNNYATYYAESVKGRFTISRDDSKNSLYLQMNSLKTEDTAVYYCRYVHYGAYYGVDAWGQGTTVTVSSASTKGPSVFPLAPSSKSTSGGTAALGCLVKDYFPEPVTVSWNSGALTSGVHTFPAVLQSSGLYSLSSVVTVPSSSLGTQTYICNVNHKPSNTKVDKKVEPKSCDKTHTCPPCPAPEAAGGPSVFLFPPKPKDTLMISRTPEVTCVVVDVSHEDPEVKFNWYVDGVEVHNAKTKPREEQYASTYRVVSVLTVLHQDWLNGKEYKCKVSNKALPAPIEKTISKAKGQPREPQVYTLPPSRCELTKNQVSLSCAVKGFYPSDIAVEWESNGQPENNYKTTPPVLDSDGSFFLVSKLTVDKSRWQQGNVFSCSVMHEALHNHYTQKSLSLSPDYKDDDDK
chain: EPKSSDKTHTCPPCPAPELLGGPSVFLFPPKPKDTLMISRTPEVTCVVVDVSHEDPEVKFNWYVDGVEVHNAKTKPREEQYNSTYRVVSVLTVLHQDWLNGKEYKCKVSNKALPAPIEKTISKAKGQPREPQVCTLPPSRDELTKNQVSLWCLVKGFYPSDIAVEWESNGQPENNYKTTPPVLDSDGSFFLYSKLTVDKSRWQQGNVFSCSVMHEALHNRYTQKSLSLSP
light: DIVMTQSPLSLPVTPGEPASISCRSSQSLVHSNRNTYLHWYQQKPGQAPRLLIYKVSNRFSGVPDRFSGSGSGTDFTLKISRVEAEDVGVYYCGQGTQRPYTFGQGTKLEIKRTVAAPSVFIFPPSDEQLKSGTASVVCLLNNFYPREAKVQWKVDNALQSGNSQESVTEQDSKDSTYSLSSTLTLSKADYEKHKVYACEVTHQGLSSPVTKSFNRGEC
B3: GLS3000 V94S one-arm antibody (antibody, human IgG1, kappa, L234A L235A, N297A, name in Kabat numbering)
heavy: QVQLVESGGGVVQPGRSLRLSCAASGFTFSNAWMHWVRQAPGKGLEWVAQIKAKSNNYATYYAESVKGRFTISRDDSKNSLYLQMNSLKTEDTAVYYCRYVHYGAYYGVDAWGQGTTVTVSSASTKGPSVFPLAPSSKSTSGGTAALGCLVKDYFPEPVTVSWNSGALTSGVHTFPAVLQSSGLYSLSSVVTVPSSSLGTQTYICNVNHKPSNTKVDKKVEPKSCDKTHTCPPCPAPEAAGGPSVFLFPPKPKDTLMISRTPEVTCVVVDVSHEDPEVKFNWYVDGVEVHNAKTKPREEQYASTYRVVSVLTVLHQDWLNGKEYKCKVSNKALPAPIEKTISKAKGQPREPQVYTLPPSRCELTKNQVSLSCAVKGFYPSDIAVEWESNGQPENNYKTTPPVLDSDGSFFLVSKLTVDKSRWQQGNVFSCSVMHEALHNHYTQKSLSLSPDYKDDDDK
chain: EPKSSDKTHTCPPCPAPELLGGPSVFLFPPKPKDTLMISRTPEVTCVVVDVSHEDPEVKFNWYVDGVEVHNAKTKPREEQYNSTYRVVSVLTVLHQDWLNGKEYKCKVSNKALPAPIEKTISKAKGQPREPQVCTLPPSRDELTKNQVSLWCLVKGFYPSDIAVEWESNGQPENNYKTTPPVLDSDGSFFLYSKLTVDKSRWQQGNVFSCSVMHEALHNRYTQKSLSLSP
light: DIVMTQSPLSLPVTPGEPASISCRSSQSLVHSNRNTYLHWYQQKPGQAPRLLIYKVSNRFSGVPDRFSGSGSGTDFTLKISRVEAEDVGVYYCGQGTQSPYTFGQGTKLEIKRTVAAPSVFIFPPSDEQLKSGTASVVCLLNNFYPREAKVQWKVDNALQSGNSQESVTEQDSKDSTYSLSSTLTLSKADYEKHKVYACEVTHQGLSSPVTKSFNRGEC
B4: GLS3000 V94T one-arm antibody (antibody, human IgG1, kappa, L234A L235A, N297A, name in Kabat numbering)
heavy: QVQLVESGGGVVQPGRSLRLSCAASGFTFSNAWMHWVRQAPGKGLEWVAQIKAKSNNYATYYAESVKGRFTISRDDSKNSLYLQMNSLKTEDTAVYYCRYVHYGAYYGVDAWGQGTTVTVSSASTKGPSVFPLAPSSKSTSGGTAALGCLVKDYFPEPVTVSWNSGALTSGVHTFPAVLQSSGLYSLSSVVTVPSSSLGTQTYICNVNHKPSNTKVDKKVEPKSCDKTHTCPPCPAPEAAGGPSVFLFPPKPKDTLMISRTPEVTCVVVDVSHEDPEVKFNWYVDGVEVHNAKTKPREEQYASTYRVVSVLTVLHQDWLNGKEYKCKVSNKALPAPIEKTISKAKGQPREPQVYTLPPSRCELTKNQVSLSCAVKGFYPSDIAVEWESNGQPENNYKTTPPVLDSDGSFFLVSKLTVDKSRWQQGNVFSCSVMHEALHNHYTQKSLSLSPDYKDDDDK
chain: EPKSSDKTHTCPPCPAPELLGGPSVFLFPPKPKDTLMISRTPEVTCVVVDVSHEDPEVKFNWYVDGVEVHNAKTKPREEQYNSTYRVVSVLTVLHQDWLNGKEYKCKVSNKALPAPIEKTISKAKGQPREPQVCTLPPSRDELTKNQVSLWCLVKGFYPSDIAVEWESNGQPENNYKTTPPVLDSDGSFFLYSKLTVDKSRWQQGNVFSCSVMHEALHNRYTQKSLSLSP
light: DIVMTQSPLSLPVTPGEPASISCRSSQSLVHSNRNTYLHWYQQKPGQAPRLLIYKVSNRFSGVPDRFSGSGSGTDFTLKISRVEAEDVGVYYCGQGTQTPYTFGQGTKLEIKRTVAAPSVFIFPPSDEQLKSGTASVVCLLNNFYPREAKVQWKVDNALQSGNSQESVTEQDSKDSTYSLSSTLTLSKADYEKHKVYACEVTHQGLSSPVTKSFNRGEC

These binders were tested against T1, CD3ε homodimer protein (human, UniProt P07766 23-126, limits assumed) (assay: SPR Biacore T200, CD3ε homodimer on chip;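 further: Light-chain single-residue variant antibodies injected over amine-coupled CD3ε homodimer on a CM4 chip at 25 °C, bound amount divided by that of the GLS3000-containing antibody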).
T1 construct: also called CD3 (CD3ε)
T1 sequence (P07766 23-126 limits assumed): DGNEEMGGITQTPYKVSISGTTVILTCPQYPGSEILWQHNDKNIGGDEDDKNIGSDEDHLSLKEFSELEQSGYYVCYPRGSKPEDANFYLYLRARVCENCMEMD
B1 was tested, and the “ratio of amount bound vs unaltered GLS3000” value (from here on “ratio of amount bound”) was 0.76. In the case of B2, the “ratio of amount bound” value is reported as 0.66. With B3 the “ratio of amount bound” value was 0.93. For B4, the “ratio of amount bound” value was 0.93.
